Consider 10 molecules from patent US20240409617A1 (published 2024).

Residue numbers refer to the chain shown, from its start. Bounds are passed on as bounds.

One may read the Kd as a measure of binding affinity in units of concentration.

B1: Ab 16 (scFv, V domains shown)
VH: QVQLVQSGGGVVQPGRSLRLSCAASGFTFSNYGMHWVRQAPGKGLEWVALIWERGSKKDYADSVKGRFTVSRDNSKNTLYLQMNSLRPEDTAVYFCAREGISMTGAEYFQHWGQGTLVTVSS
VL: QSVLTQPPSVSGSPGQRVTMSCTGSSSNIGAGYDVHWYQQVPGAAPRLLIYGTNNRPSGVPDRFSGSKSGTSASLTITGLQAEDEADYYCQSYDNSLTDPYVFGTGTKVTVL
B2: Ab 17 (scFv, V domains shown)
VH: QVQLVQSGGGVVQPGRSLRLSCAASGFTFDDYAMHWVRQVPGKGLEWVSGIDWNSGVIGYADSVKGRFTISRDNVKNSLYLQMNSLRTEDSALYYCAKDIGPGGSGSYYAFDIWGQGTTVTVSS
VL: QSALTQPASVSGSPGQSITISCTGTSSDVGGSKYVSWYQQHPGKAPKVMIYDVTKRPSGVPDRFSGSKSGNTASLTISGLQAEDEADYYCAAWDDSLNGVVFGGGTKLTVL
B3: Ab 15 (Fc fusion)
VH: QVQLVQSGGGLVKPGRSLRLSCTASGFTFGDYAMSWFRQAPGKGLEWVGFIRSKAYGGTTGYAASVKGRFTISRDDSKSIAYLQMNSLKTEDTAVYYCTTADDDMDVWGKGTTVTVSS
VL: NFMLTQPHSVSESPGKTVTISCTRSSGTIASNYVQWYQQRPGSAPTTVIYEDNQRPSGVPDRFSGSIDRSSNSASLTISGLTPDDEADYYCQSYDTSNHYVFGTGTKVTVL
B4: Ab 23 (Fc fusion)
VH: EVQLVQSGAEVKKPGSSVKVSCRSSGGTFSTYGITWVRQAPGQGLEWMGRIIPSLGIPNYAQKFQGRVTITADTSVSTAWMELSSLESDDTAIYYCARENIDLATNDFWGQGTLVTVSS
VL: QSALTQPPSASGSPGQSVTISCTGTSRDIGAYGYVSWYQQVPGKAPKLIIYEVRNRPSGVSSRFSGSKSGNTASLTISGLQAEDEADYYCSSYTSSSTLDVVFGGGTKLTVL
B5: Ab 25 (Fc fusion)
VH: QVQLVQSGGGLVQPGGSLRLSCAASGFTFSSYWMSWVRQAPGKGLEWVANIKQDGSEKYYVDSVKGRFTISRDNAKNSLYLQMNSLRAEDTAVYYCARGFYYYGAFDIWGQGTTVTVSS
VL: NFMLTQPHSVSESPGKTVTISCTGSSGSIASNYVQWYQQRPGSAPTTVIYEDNQRPSGVPDRFSGSIGSSSNSASLTISGLKTEDEADYYCQSYDSSNHWVFGGGTKLTVL
B6: Ab 13 (scFv, V domains shown)
VH: QVTLKESGPKLVKPTQTLTLTCTFSGFSLSTSGVGVGWIRQPPGKALEWLALIYWDDDKRYSPSLKSRLTIAKDTSKYQVVLTMTNMDPVDTATYYCARISGSGYFYPFDIWGQGTMVTVSA
VL: B5 VL with G24R, G68D, H99L
B7: Ab 20 (scFv, V domains shown)
VH: QVQLVQSGGGSVKPGGSLRLSCAASGYRLSDYYMHWVRQAPGKGLEWVANIKQDGSEKYYVDSVKGRFTISRDNAKNSLYLQMNSLRAEDTAVYYCARVRGWSRGYFDYWGQGTLVTVSS
VL: B5 VL with G68D, T77L
B8: Ab 18 (scFv, V domains shown)
VH: EVQLVQSGGGVVQPGRSLRVSCAASGFSFSRYGMHWVRQAPGKGLEWVAFIRHDGSKKYYADSVEGRFTISRDNSRNTVSLEMNSLRGEDTAVYYCAKDGRLEAALDDWGQGTLVTVSS
VL: NFMLTQPHSMSGSAGKTVTVSCIRSSGSIANNFVQWYQQRPGSAPTTVIYEDNQRPSGVPDRFSGSIDSSSNSASLTISGLKTEDEADYYCQSYDSSNLVFGGGTRLTVL
B9: Ab 27 (Fc fusion)
VH: QVQLVQSGTEVKKPGASVKVSCKASGYSFTGSHLHWVRQAPGQGLEWMGWINPDSGVINYAQKFQGRVTLTRDTSISTAYMELSGLRSDDTAVYYCARDKAIGYVWALDYWGQGTLVTVSS
VL: QSALTQPPSVSGSPGQSVTISCTGTSSDVGTYNRVSWYQQPPGKAPKLMIYEVSNRPSGVSNRFSGSKSGNTASLTISGLQAEDEADYYCSSYTRTFTYVFGTGTKVTVL
B10: Ab 21 (scFv, V domains shown)
VH: QVQLVQSGGGLVQPGGSLRLSCATSGFTFDDYAMHWVRQAPGKGLEWVSGISWNSGSIGYVDSVKGRFTISRDNRNNKVYLQMNNLRAEDTAVYYCARDWWGSIDHWGLGTLVTVSS
VL: QSALTQPRSVSGSPGQSVTISCTGTSSDVGGYDYVSWYQQHPGKAPKLIIYDVSKRPSGVPDRFSGSKSGNTASLTVSGLQAEDEADYYCSSYTSSSPVVFGGGTKLTVL

This assay addresses RBD-biotin. Briefly: BLI.
B1 had a Kd of 959 pM.

Molecule B2 displayed a Kd of 882 pM.

With B3, the dissociation constant (Kd) is 6610 pM.

Consider B4, for which the equilibrium dissociation constant (Kd) is less than 1 pM.

Turning to B5, the Kd came out at 223 pM.

Take B6: the dissociation constant (Kd) is 922 pM.

In turn, B7 showed a Kd of 1900 pM.

Turning to B8, the Kd turned out to be 2310 pM.

On to B9, for which the Kd was 906 pM.

B10 showed a Kd of 1480 pM.
